# In IntAct's records for PubMed 20168298:
# B1: Polycystin-2 (Homo sapiens), Q13563 (parent)
# chain: MVNSSRVQPQQPGDAKRPPAPRAPDPGRLMAGCAAVGASLAAPGGLCEQRGLEIEMQRIRQAAARDPPAGAAASPSPPLSSCSRQAWSRDNPGFEAEEEEEEVEGEEGGMVVEMDVEWRPGSRRSAASSAVSSVGARSRGLGGYHGAGHPSGRRRRREDQGPPCPSPVGGGDPLHRHLPLEGQPPRVAWAERLVRGLRGLWGTRLMEESSTNREKYLKSVLRELVTYLLFLIVLCILTYGMMSSNVYYYTRMMSQLFLDTPVSKTEKTNFKTLSSMEDFWKFTEGSLLDGLYWKMQPSNQTEADNRSFIFYENLLLGVPRIRQLRVRNGSCSIPQDLRDEIKECYDVYSVSSEDRAPFGPRNGTAWIYTSEKDLNGSSHWGIIATYSGAGYYLDLSRTREETAAQVASLKKNVWLDRGTRATFIDFSVYNANINLFCVVRLLVEFPATGGVIPSWQFQPLKLIRYVTTFDFFLAACEIIFCFFIFYYVVEEILEIRIHKLHYFRSFWNCLDVVIVVLSVVAIGINIYRTSNVEVLLQFLEDQNTFPNFEHLAYWQIQFNNIAAVTVFFVWIKLFKFINFNRTMSQLSTTMSRCAKDLFGFAIMFFIIFLAYAQLAYLVFGTQVDDFSTFQECIFTQFRIILGDINFAEIEEANRVLGPIYFTTFVFFMFFILLNMFLAIINDTYSEVKSDLAQQKAEMELSDLIRKGYHKALVKLKLKKNTVDDISESLRQGGGKLNFDELRQDLKGKGHTDAEIEAIFTKYDQDGDQELTEHEHQQMRDDLEKEREDLDLDHSSLPRPMSSRSFPRSLDDSEEDDDEDSGHSSRRRGSISSGVSYEEFQVLVRRVDRMEHSIGSIVSKIDAVIVKLEIMERAKLKRREVLGRLLDGVAEDERLGRDSEIHREQMERLVREELERWESDDAASQISHGLGTPVGLNGQPRPRSSRPSSSQSTEGMEGAGGNGSSNVHV
# Variants of: B1
# Details: with pkd1_human PKD1, P98161
# pkd1_human PKD1, P98161, sequence (P98161 whole entry, looked up): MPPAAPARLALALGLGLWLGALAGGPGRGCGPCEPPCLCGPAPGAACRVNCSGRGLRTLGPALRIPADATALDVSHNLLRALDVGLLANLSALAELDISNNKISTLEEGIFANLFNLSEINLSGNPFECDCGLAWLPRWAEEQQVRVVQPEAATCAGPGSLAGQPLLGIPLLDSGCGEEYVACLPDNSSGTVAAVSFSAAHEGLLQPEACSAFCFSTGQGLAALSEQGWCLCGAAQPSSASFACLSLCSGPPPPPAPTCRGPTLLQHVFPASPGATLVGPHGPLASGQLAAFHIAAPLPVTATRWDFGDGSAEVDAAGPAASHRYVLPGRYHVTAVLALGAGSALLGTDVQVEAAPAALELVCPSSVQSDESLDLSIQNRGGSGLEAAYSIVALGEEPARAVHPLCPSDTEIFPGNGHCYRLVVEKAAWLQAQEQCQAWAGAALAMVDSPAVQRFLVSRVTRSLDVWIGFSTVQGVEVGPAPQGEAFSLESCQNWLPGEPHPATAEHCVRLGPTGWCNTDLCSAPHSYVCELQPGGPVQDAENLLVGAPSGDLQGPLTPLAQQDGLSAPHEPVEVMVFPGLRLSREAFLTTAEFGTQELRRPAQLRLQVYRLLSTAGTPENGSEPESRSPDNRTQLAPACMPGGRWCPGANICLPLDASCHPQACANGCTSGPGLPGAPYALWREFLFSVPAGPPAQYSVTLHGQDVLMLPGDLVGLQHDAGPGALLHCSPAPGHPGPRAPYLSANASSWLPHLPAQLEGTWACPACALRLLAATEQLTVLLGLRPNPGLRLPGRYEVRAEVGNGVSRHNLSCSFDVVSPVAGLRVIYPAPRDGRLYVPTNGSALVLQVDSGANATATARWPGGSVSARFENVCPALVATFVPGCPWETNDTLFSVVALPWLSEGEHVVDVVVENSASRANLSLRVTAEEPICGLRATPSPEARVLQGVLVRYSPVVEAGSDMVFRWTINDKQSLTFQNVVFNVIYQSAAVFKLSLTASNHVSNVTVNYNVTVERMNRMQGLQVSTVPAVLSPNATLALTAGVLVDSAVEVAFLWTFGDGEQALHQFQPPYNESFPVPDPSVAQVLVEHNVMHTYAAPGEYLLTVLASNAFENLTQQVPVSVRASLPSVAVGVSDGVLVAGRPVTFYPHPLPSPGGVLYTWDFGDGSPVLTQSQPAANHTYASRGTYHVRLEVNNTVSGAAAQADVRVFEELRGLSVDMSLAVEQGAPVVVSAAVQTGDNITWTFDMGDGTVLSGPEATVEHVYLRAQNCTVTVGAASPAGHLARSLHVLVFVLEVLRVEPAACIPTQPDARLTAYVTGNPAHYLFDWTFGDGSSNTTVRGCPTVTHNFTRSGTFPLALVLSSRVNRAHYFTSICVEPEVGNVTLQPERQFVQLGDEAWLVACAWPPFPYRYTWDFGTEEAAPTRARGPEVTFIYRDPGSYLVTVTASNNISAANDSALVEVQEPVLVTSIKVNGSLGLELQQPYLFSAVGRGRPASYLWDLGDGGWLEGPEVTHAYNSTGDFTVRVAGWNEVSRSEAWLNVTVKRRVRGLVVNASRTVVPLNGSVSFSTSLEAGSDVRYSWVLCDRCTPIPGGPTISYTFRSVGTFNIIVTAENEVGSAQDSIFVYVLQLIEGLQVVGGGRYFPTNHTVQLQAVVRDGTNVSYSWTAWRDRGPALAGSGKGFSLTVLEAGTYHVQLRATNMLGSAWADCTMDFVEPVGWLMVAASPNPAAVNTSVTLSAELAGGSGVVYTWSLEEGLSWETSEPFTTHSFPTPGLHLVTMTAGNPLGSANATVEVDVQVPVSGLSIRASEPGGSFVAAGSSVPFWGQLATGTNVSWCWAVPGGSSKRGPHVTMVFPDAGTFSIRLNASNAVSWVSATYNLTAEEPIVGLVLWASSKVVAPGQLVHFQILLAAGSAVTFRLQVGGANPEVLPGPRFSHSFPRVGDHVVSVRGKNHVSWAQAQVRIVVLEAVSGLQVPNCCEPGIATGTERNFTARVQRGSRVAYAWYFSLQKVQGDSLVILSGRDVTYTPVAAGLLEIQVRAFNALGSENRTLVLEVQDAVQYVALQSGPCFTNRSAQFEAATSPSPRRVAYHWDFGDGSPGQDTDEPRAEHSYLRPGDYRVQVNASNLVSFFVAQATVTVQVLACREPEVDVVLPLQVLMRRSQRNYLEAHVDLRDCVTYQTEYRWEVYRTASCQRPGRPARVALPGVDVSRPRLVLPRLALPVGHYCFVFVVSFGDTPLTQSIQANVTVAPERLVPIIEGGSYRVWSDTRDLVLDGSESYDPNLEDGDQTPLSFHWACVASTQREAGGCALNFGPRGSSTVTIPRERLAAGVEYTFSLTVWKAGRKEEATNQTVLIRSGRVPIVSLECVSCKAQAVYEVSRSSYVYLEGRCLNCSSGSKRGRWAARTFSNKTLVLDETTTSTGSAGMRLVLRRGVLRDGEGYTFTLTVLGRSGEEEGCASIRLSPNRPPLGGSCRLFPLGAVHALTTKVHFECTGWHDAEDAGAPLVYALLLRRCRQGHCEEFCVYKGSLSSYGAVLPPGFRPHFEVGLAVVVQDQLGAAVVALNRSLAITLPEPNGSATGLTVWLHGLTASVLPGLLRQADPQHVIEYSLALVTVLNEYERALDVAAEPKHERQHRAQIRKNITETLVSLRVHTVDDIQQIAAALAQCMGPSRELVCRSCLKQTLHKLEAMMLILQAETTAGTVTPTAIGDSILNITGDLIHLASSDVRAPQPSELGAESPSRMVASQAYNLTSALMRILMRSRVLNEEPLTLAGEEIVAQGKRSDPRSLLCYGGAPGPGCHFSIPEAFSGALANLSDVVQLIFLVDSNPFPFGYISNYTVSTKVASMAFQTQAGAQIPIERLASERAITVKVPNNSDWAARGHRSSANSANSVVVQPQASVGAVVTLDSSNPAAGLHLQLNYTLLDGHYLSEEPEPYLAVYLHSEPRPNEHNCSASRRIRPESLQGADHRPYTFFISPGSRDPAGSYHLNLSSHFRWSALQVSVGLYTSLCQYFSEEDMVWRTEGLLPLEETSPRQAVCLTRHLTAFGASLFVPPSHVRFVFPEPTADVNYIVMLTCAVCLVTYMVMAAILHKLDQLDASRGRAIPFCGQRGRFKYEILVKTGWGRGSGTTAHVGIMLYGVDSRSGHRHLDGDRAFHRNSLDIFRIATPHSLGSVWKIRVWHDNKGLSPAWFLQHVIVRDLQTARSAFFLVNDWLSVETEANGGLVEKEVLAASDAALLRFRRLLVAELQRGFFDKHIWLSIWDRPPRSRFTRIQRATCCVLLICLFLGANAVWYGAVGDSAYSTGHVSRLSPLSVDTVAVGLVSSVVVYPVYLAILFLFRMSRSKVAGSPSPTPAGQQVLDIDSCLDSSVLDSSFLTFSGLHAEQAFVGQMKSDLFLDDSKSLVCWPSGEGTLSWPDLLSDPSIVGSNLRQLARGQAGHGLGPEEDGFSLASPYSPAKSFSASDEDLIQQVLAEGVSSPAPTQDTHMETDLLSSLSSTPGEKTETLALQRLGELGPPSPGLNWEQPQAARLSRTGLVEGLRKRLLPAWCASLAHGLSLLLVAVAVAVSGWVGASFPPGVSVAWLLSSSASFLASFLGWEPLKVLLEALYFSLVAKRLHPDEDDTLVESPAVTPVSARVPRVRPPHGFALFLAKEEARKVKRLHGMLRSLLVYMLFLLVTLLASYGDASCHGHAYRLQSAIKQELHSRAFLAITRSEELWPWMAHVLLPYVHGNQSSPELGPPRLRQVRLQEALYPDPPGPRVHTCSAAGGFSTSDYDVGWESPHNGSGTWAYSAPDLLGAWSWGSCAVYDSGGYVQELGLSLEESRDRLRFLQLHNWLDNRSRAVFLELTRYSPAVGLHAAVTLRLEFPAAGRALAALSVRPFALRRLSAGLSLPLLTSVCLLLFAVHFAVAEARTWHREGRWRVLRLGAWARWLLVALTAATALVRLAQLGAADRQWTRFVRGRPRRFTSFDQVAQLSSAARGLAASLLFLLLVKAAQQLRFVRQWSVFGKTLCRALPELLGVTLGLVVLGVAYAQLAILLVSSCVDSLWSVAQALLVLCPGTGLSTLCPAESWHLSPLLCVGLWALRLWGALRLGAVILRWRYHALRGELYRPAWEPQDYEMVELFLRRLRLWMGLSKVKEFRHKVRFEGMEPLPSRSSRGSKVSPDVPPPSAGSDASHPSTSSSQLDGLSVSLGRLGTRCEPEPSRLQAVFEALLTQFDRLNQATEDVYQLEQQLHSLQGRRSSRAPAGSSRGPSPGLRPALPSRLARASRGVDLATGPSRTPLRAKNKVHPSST
row,Variant,effect of a mutation on the interaction
1,I860A,disrupting interaction
2,L867A,disrupting interaction
3,V846A,disrupting interaction
4,I853A,disrupting interaction
